Nine substances from publication PMC6873191 can be followed below.

Assay [1] deals with full-length ClpC fused to the T25 fragment of B. pertussis adenylate cyclase (UniProt P37571). Kind of assay: bacterial two-hybrid interaction assay (β-gal readout). As to conditions: E. coli Δcya strain DHM1, Gp53 fused to T18, ClpC fused to T25, n = 3; for response: parent: est. 21000, read off a plot; for percent of parent: parent: 100.
The target in assay [2] is C-terminal FLAG-tagged ClpC (B. subtilis) (UniProt P37571).
Assay [3] addresses full-length ClpC fused to the T25 fragment of B. pertussis adenylate cyclase (B. subtilis) (UniProt P37571). Description: two-hybrid; modified bacterial two-hybrid: MecA-T18 and ClpC-T25 in E. coli DHM1 that holds a plasmid with Gp53 under the L-arabinose-inducible araB promoter; β-gal activity with and without L-arabinose.

On to “Gp53 (WT) fused to a fragment of B. pertussis adenylate cyclase for the bacterial two-hybrid assay K101A”, for which the response in assay [1] was determined as 22000 Miller Units. Consider “Gp53 (WT) fused to a fragment of B. pertussis adenylate cyclase for the bacterial two-hybrid assay V87A”, for which, in assay [1], the percent of parent was 44% and the response came to 9300 Miller Units. In turn, “N-terminal His6-tagged Gp53 of phage SPO1 (natural protein)” yielded a β-casein (3 μM) left intact after 90 min of in vitro degradation by ClpCP with MecA, with Gp53 against without Gp53 in assay [2] of 10 fold. Turning to “Gp53 (WT) fused to a fragment of B. pertussis adenylate cyclase for the bacterial two-hybrid assay R94E”, in assay [1], the percent of parent amounted to 37% and the response was found to be 7700 Miller Units. “Gp53 expressed from pSCBAD-Gp53 under the L-arabinose-inducible araB promoter (natural protein)”: the fold reduction of the β-gal activity of MecA-ClpC on induction of Gp53 in assay [3] is 3 fold. Take “Gp53 (WT) fused to a fragment of B. pertussis adenylate cyclase for the bacterial two-hybrid assay L95A”: in assay [1], the percent of parent was found to be 48% and the response is 10000 Miller Units.

Take “Gp53 (WT) fused to a fragment of B. pertussis adenylate cyclase for the bacterial two-hybrid assay L83A”: in assay [1], the response stood at 20000 Miller Units. Same read-out and setting: the result for “Gp53 (WT) fused to a fragment of B. pertussis adenylate cyclase for the bacterial two-hybrid assay R94A” reads 21000 Miller Units; that for “Gp53 (WT) fused to a fragment of B. pertussis adenylate cyclase for the bacterial two-hybrid assay K101E”, 23000 Miller Units.
